Results on one molecule are retold here after PMC3584105, “Acute BDNF Treatment Upregulates GluR1-SAP97 and GluR2-GRIP1 Interactions: Implications for Sustained AMPA Receptor Expression” (PLoS ONE, 2013).

This experiment addresses T1, GluR2 (wild type, full length, expressed in HEKTrkB cells) (UniProt P19491 22-883).
T1 construct: AMPA receptor subunit GluR2, wild type cDNA in a CMV expression vector; the deletion mutants of the same cDNA end at residue 862; also called WT GluR2; full length GluR2; source: HEKTrkB cells, transiently co-transfected (cDNA downstream from the CMV promoter), in lysate
In words: co-IP; lysate of HEKTrkB cells co-transfected with GluR2 and GRIP1, treated with BDNF (1 h, 50 ng/mL) or not; precipitation with anti-N-terminal GluR2 and blot with anti-GRIP1, or precipitation with anti-GRIP1 and blot with anti-C-terminal GluR2/3. To be noted: partners not purified.

T1 sequence (P19491 22-883): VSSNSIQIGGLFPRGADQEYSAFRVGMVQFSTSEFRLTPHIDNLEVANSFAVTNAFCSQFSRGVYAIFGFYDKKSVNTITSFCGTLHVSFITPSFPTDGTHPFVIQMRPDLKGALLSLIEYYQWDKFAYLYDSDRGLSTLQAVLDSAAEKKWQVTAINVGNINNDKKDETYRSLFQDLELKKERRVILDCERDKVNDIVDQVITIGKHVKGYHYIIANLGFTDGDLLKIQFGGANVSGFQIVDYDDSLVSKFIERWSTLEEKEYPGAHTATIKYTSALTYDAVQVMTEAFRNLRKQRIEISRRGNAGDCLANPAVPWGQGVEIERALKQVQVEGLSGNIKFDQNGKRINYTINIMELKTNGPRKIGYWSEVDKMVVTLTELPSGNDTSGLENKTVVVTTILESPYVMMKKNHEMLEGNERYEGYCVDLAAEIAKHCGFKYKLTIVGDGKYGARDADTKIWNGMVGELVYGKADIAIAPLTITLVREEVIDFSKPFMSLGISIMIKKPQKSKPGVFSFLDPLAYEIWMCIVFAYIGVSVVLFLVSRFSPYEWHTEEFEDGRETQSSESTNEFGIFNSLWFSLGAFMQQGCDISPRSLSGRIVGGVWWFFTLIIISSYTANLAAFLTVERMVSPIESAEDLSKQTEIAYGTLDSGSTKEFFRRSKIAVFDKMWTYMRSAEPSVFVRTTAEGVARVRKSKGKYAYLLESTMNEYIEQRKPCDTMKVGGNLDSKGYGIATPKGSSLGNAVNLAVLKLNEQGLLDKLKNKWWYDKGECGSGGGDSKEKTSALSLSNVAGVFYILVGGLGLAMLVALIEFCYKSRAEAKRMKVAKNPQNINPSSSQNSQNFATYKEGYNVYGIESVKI

B1: GRIP1 (expressed in HEKTrkB cells) (natural protein, UniProt P97879 1-1112, looked up)
chain: MIAVSFKCRCQILRRLTKDESPYTKSASQTKPPDGALAVRRQSIPEEFKGSTVVELMKKEGTTLGLTVSGGIDKDGKPRVSNLRQGGIAARSDQLDVGDYIKAVNGINLAKFRHDEIISLLKNVGERVVLEVEYELPPVSIQGSSVMFRTVEVTLHKEGNTFGFVIRGGAHDDRNKSRPVVITCVRPGGPADREGTIKPGDRLLSVDGIRLLGTTHAEAMSILKQCGQEATLLIEYDVSVMDSVATASGPLLVEVAKTPGASLGVALTTSVCCNKQVIVIDKIKSASIADRCGALHVGDHILSIDGTSMEYCTLAEATQFLANTTDQVKLEILPHHQTRLALKGPDHVKIQRSDRQLPWDPWASSQCSVHTNHHHNPHHPDHCRVPALGFPKALTPNSPPAMVSSSSPTSMSAYSLSSLNMGTLPRSLYSTSPRGTMMRRRLKKKDFKSSLSLASSTVGLAGQVVHTETTEVVLTADPVTGFGIQLQGSVFATETLSSPPLISYIEADSPAERCGVLQIGDRVMAINGIPTEDSTFEEANQLLRDSSITSKVTLEIEFDVAESVIPSSGTFHVKLPKKHSVELGITISSPSSRKPGDPLVISDIKKGSVAHRTGTLELGDKLLAIDNIRLDSCSMEDAVQILQQCEDLVKLKIRKDEDNSDEQESSGAIIYTVELKRYGGPLGITISGTEEPFDPIIISSLTKGGLAERTGAIHIGDRILAINSSSLKGKPLSEAIHLLQMAGETVTLKIKKQTDAQPASSPKKLPIPSHSSDLGDGEEDPSPIQRPGKLSDVYPSTVPSVDSAVDSWDGSGIDARYGSQGTTFQTSGYNFNTYDWRSPKKRASLSPVPKPRSQTYPDVGLSNEDWDRSTASGFAGASDSADAEQEENFWSQALEDLETCGQSGILRELEATIMSGSTMSLNHEAPTARSQLGRQASFQERSNSRPHYSQTTRSNTLPSDVGRKSVTLRKMKQEIKEIMSPTPVELHKVTLYKDSGMEDFGFSVADGLLEKGVYVKNIRPAGPGDLGGLKPYDRLLQVNHVRTRDFDCCLVVPLIAESGNKLDLVISRNPLASQKSIEQPALPSDWSEQNSAFFQQPSHGGNLETREPTNTL
notes: source: HEKTrkB cells, transiently co-transfected (cDNA downstream from the CMV promoter), in lysate
B1: the “fold change of the co-precipitate, 1 h BDNF against untreated cells” value was ~6 fold.
